Common to all, as to assay: high-throughput RNA pulldown from lysate on Ni-NTA beads; HRP: 50 mM Tris pH 8, 150 mM NaCl, 1 mM beta-mercaptoethanol, 50 ug/ml BSA, 3 ug/ml yeast RNA, 0.5% heparin; ITC and FP: Tris pH 8, 200 mM KCl, 5% glycerol; MST: 50 mM Tris pH 8, 200 mM NaCl, 1 mM DTT, BSA, heparin, 0.05% Tween 20
Common to all, as to settings: tags: N-terminal His-eGFP

Data set [1] concerns the target T1, GFP-9S library array, motif 4 ND N98S;D124R (synthetic construct, N98S;D124R).
T1 chain: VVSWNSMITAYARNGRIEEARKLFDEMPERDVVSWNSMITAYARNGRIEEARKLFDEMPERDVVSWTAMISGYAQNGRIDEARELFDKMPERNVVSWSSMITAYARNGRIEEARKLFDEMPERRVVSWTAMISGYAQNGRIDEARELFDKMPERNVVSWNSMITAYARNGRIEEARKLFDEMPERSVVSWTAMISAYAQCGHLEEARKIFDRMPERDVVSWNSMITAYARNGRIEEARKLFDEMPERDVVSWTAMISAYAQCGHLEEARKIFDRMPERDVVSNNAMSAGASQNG

Data set [2] deals with T2, GFP-9S library array, motif 4 ND N98T;D124Q (synthetic construct, N98T;D124Q).
T2 chain: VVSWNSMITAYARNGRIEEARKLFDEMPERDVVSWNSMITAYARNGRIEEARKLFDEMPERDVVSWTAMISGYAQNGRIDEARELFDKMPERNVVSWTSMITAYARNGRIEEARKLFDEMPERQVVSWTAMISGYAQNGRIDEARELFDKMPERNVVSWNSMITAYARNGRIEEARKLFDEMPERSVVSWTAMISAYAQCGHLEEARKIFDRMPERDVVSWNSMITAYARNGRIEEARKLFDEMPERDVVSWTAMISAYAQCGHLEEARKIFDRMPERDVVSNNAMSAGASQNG

The target in data set [3] is T3, GFP-9S library array, motif 4 ND N98V;D124I (synthetic construct, N98V;D124I).
T3 chain: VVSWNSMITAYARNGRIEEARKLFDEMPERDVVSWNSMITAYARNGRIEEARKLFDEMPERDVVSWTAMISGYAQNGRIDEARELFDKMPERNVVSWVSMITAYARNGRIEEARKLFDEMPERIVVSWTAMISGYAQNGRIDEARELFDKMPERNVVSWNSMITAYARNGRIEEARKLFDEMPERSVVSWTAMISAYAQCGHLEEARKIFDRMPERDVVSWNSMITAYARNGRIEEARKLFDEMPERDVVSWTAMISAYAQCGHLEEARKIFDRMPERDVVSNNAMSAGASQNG

The target in data set [4] is T4, GFP-9S library array, motif 4 ND N98T;D124R (synthetic construct, N98T;D124R).
T4 chain: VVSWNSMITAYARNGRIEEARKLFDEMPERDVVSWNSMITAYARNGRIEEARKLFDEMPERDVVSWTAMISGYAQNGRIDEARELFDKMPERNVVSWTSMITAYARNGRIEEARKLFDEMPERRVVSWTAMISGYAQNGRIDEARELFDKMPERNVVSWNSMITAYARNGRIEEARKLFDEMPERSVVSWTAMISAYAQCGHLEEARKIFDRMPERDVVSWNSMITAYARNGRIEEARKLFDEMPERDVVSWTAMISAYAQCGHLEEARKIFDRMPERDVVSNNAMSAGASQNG

The target in data set [5] is T5, GFP-9S library array, motif 4 ND N98Y;D124L (synthetic construct, N98Y;D124L).
T5 chain: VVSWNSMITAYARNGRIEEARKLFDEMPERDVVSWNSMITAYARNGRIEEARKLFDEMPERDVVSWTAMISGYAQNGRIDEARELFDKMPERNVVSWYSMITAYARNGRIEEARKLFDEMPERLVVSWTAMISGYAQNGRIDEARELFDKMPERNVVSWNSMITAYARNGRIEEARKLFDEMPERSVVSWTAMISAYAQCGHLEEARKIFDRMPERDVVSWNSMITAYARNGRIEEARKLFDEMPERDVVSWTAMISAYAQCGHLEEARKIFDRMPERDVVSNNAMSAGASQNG

Drawing on PMC8809517, “Cofactor-independent RNA editing by a synthetic S-type PPR protein”, this text covers Kd for four molecules.

Broadly, the Kd is the constant that tells how readily two partners part at equilibrium. High values mean lower affinity, low ones higher affinity.

AUUACACGUGA (ssRNA) [Cy5-rpoA]: the equilibrium dissociation constant (Kd) was found to be 87.7 nM in data set [1] (label: 5' Cy5); 157 nM in data set [2] (label: 5' Cy5); 121 nM in data set [3] (label: 5' Cy5); 132 nM in data set [4] (label: 5' Cy5); 89.7 nM in data set [5] (label: 5' Cy5).

For the molecule AUUAAACGUGA (ssRNA) [IR-rpoA-A], the Kd in data set [1] (label: 5' IRDye 800CW) came out at 63.5 nM; in data set [2] (label: 5' IRDye 800CW) it was 107 nM; in data set [3] (label: 5' IRDye 800CW), 384 nM; in data set [4] (label: 5' IRDye 800CW), 80.8 nM; in data set [5] (label: 5' IRDye 800CW), 162 nM.

In the case of AUUAGACGUGA (ssRNA) [Cy5-rpoA-G], the Kd in data set [1] (label: 5' Cy5) was determined as 97.8 nM; in data set [2] (label: 5' Cy5), 128 nM; in data set [3] (label: 5' Cy5) it was 163 nM; in data set [4] (label: 5' Cy5), 120 nM; in data set [5] (label: 5' Cy5) it was 74.6 nM.

AUUAUACGUGA (ssRNA) [IR-rpoA-U]: the Kd in data set [1] (label: 5' IRDye 800CW) amounted to 109 nM; in data set [2] (label: 5' IRDye 800CW) it was 194 nM; in data set [3] (label: 5' IRDye 800CW), 205 nM; in data set [4] (label: 5' IRDye 800CW), 133 nM; in data set [5] (label: 5' IRDye 800CW) it was 199 nM.
